From publication PMC8351524 (2021)

Molecular target: T1, APOC2 (Homo sapiens, UniProt P02655)
T1 chain: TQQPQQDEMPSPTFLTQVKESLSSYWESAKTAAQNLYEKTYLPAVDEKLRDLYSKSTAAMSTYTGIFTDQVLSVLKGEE
Assay: biolayer interferometry

Kd: 128 nM
B1: CD36 (protein)
chain: GCDRNCGLIAGAVIGAVLAVFGGILMPVGDLLIQKTIKKQVVLEEGTIAFKNWVKTGTEVYRQFWIFDVQNPQEVMMNSSNIQVKQRGPYTYRVRFLAKENVTQDAEDNTVSFLQPNGAIFEPSLSVGTEADNFTVLNLAVAAASHIYQNQFVQMILNSLINKSKSSMFQVRTLRELLWGYRDPFLSLVPYPVTTTVGLFYPYNNTADGVYKVFNGKDNISKVAIIDTYKGKRNLSYWESHCDMINGTDAASFPPFVEKSQVLQFFSSDICRSIYAVFESDVNLKGIPVYRFVLPSKAFASPVENPDNYCFCTEKIISKNCTSYGVLDISKCKEGRPVYISLPHFLYASPDVSEPIDGLNPNEEEHRTYLDIEPITGFTLQFAKRLQVNLLVKPSEKIQVLKNLKRNYIVPILWLNETGTIGDEKANMFRSQVTGKINLLGLIEMILLSVGVVMFVAFMISYCACRSKTIK
